{
  "source": "paper PMC9072662",
  "target": "Tetrameric photosystem I from Chroococcidiopsis sp. TS-821 isolated with DDM (Chroococcidiopsis sp. TS-821 (endogenous in TS-821 thylakoids))",
  "data": [
    {"substance": "Tetrameric photosystem I from Chroococcidiopsis sp. TS-821 isolated with DDM (complex)", "values": [
      {"measurement": "stoichiometry N", "value": 4}
    ]}
  ]
}
